A short description of the data set: yeast display, Sf9 membrane polyspecificity reagent, FACS + sequencing; frameworks hold sequencing errors. An outline of the steps: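 Genes from sorted yeast were amplified by colony PCR, read by MiSeq 2 × 250 sequencing and filtered on CDR length. These cells carried a synthetic nanobody library in Saccharomyces cerevisiae BJ5465 and were sorted by FACS into low and high (top ~1%) gates on anti-HA and streptavidin fluorescence. Polyreactivity is labelled according to the gate of origin.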
For the sequence “QVQLVESGGGLVQAGGSLRLSCAASGSTFRSYTMGWYRQAPGKERELVAAISGRGGSTYYADSVKGRFTISRDNAKNTVYLQMNSLKPEDTAVYYCAAPYWKRVAWGFDYWGQGTQVTVSS”, the “polyreactivity (PSR sort gate)” value is given as “high polyreactivity”.
In the case of “QVQLVESGGGLVQAGGSLRLSCAASGSTFRSYTRGWYRQAPGKERELVAAIRKSGVRTYYADSVKGRFTISRDNAKNTVYLQMNSLKPEDTAVYYCNRPKWYDGDYWGQGTEVTVSS” it was “high polyreactivity”; in that of “QVQLVESGGGLVQAGGSLRLSCAASGSTFRSYVMGWYRQAPGKERELVARITFNGGGTSYADSVKGRFTISRDTAKNTVYLQMNSLKPEDTAVYYCAARGYGWPKLFNYWGQGTQVTVSS”, “high polyreactivity”.
As for “QVQLVESGGGLVQAGGSLRLSCAASGSTFRTNVMGWYRQAPGKEREVVAAITKRGSITYYADSVKGRFTISRDNAKNTVYFQMNTLKPEDTAVYYCAARKVAVRGYAYWGQGTQVTVSS”, the “polyreactivity (PSR sort gate)” value is recorded as “high polyreactivity”.
“QVQLVESGGGLVQAGGSLRLSCAASGSTFRVNTMGWYRQAPGKERELVAAISWSTGTSTYADSVKGRFTISRDNAKNTVYLQMNSLKPEDTAVYYCAAGQPAWGVEYDSWGQGTQVTVSS”: the “polyreactivity (PSR sort gate)” value is on record as “low polyreactivity”.
“QVQLVESGGGLVQAGGSLRLSCAASGSTFRVYAMGWYRQAPGKERELVAGISWRGGSTSYADSVKGRFTISRDNAKNTVYLQMNSLKPEDTAVYYCAVQRSYVGPRQYNYWGQGTQVTVSS”: the “polyreactivity (PSR sort gate)” value is recorded as “high polyreactivity”.
With “QVQLVESGGGLVQAGGSLRLSCAASGSTFRVYAMGWYRQAPGTERELVATINVSGGSTYYADSVKGRFTISRDNAKNTVYLQMNSLKPEDTAVYYCAKEDGAYGYPFDYWGQGTQVTVSS”, the “polyreactivity (PSR sort gate)” value is recorded as “low polyreactivity”.
“QVQLVESGGGLVQAGGSLRLSCAASGSTFRVYAMGWYRQATGKERELVAAIRWRGVTTYADSVKGRFTISRDNAKNTVYLQMNSLKPEDTAVYYCARDVNYPGSEGDYWGQGTQVTVSS”: the “polyreactivity (PSR sort gate)” value is recorded as “low polyreactivity”.
Regarding “QVQLVESGGGLVQAGGSLRLSCAASGSTFRWYAMGWYRQAPGKERELVAAISGSGGSTYYADSVKGRFTISRDNAKKTVYLQMNSLKPEDTAVYYCNKRYFTYLGEHTVGYWGQGTQVTVSS”, the “polyreactivity (PSR sort gate)” value is reported as “high polyreactivity”.
The same measure for “QVQLVESGGGLVQAGGSLRLSCAASGSTFRYNAMGWYRQAPGKERELVAAINRGGGTDYADSVKGRFTISRDNAKNTVYLQMNSLKPEDTAVYYCAAAYLRYVSTQYHYDDWGQGTQVTVSS”: “low polyreactivity”.
In the case of “QVQLVESGGGLVQAGGSLRLSCAASGSTFRYNAMGWYRQAPGKERELVAAITSSGGRTYYADSVKGRFTISRDNAKKTVYLQRISLKPEDTAVYYCDAYAYYHTGDDYWGQGTQVTVSS” it was “high polyreactivity”; in that of “QVQLVESGGGLVQAGGSLRLSCAASGSTFRYNAMGWYRQAPGKERELVAAITSSGSRTYYADSVKGRFTISRDNAKNTVYLQMNSLKPEDTAVYYCAAYGYYTKVTKYDYWGQGTQVNVSS”, “high polyreactivity”.
The same measure for “QVQLVESGGGLVQAGGSLRLSCAASGSTFRYNAMGWYRQAPGKERELVAGISYRGGTTYYADSVKGRFTISRDNAKNTVYLQMNSLKPEDTAVYYCAADSRAKRYYWGQGTQVTVSS”: “high polyreactivity”.
As for “QVQLVESGGGLVQAGGSLRLSCAASGSTFRYNAMGWYRQAPGKERELVATITGSGGSTYYADSVKGRFTISRDNAKNTVYLQMNSLKPEDTAVYYCTARYVYGAYSSLSAHYYWGQGTQVTVSS”, the “polyreactivity (PSR sort gate)” value is on record as “high polyreactivity”.
In the case of “QVQLVESGGGLVQAGGSLRLSCAASGSTFRYNVMGWYRQAPGKERELVAAISSGGSTYYADSVKGRFTISRDNAKNTVYLQMNSLKPEDTAVYYCAAPRYLFFVGLGMDYWGQGTQVTVSS” it was “high polyreactivity”.
The same measure for “QVQLVESGGGLVQAGGSLRLSCAASGSTFRYYAMGWYRQAPGKEREFVATINKSGGSTYYADSVKGRFTISRDNEKNTVYLQMNSLKPEDTAVYYGATRKSGGYRYDYWGQGTQVTVSS”: “high polyreactivity”.
In the case of “QVQLVESGGGLVQAGGSLRLSCAASGSTFRYYAMGWYRQAPGKERELVAAISGSGGRTYYADSVKGRFTISRDNAKNTVYLQMNSLKPEYTAVYYCNTRGRSTDYDYWGQGTQVTVSS”, the “polyreactivity (PSR sort gate)” value is listed as “high polyreactivity”.
Regarding “QVQLVESGGGLVQAGGSLRLSCAASGSTFRYYAMGWYRQAPGKERELVAAISGSGGRTYYADSVKGRFTISRDNAKNTVYLQMYSLKPEDTAVYYCAASRYQFYWGQGTQVTVSS”, the “polyreactivity (PSR sort gate)” value is “high polyreactivity”.
In the case of “QVQLVESGGGLVQAGGSLRLSCAASGSTFRYYAMGWYRQAPGKERELVAAISKSGGRTYYADSVKGRFTISRDNAKNTVYLEMNSLKPEDTAVYYCAADCVARYQKGQYDYWGQGTQVTVSS” it was “high polyreactivity”; in that of “QVQLVESGGGLVQAGGSLRLSCAASGSTFRYYAMGWYRQAPGKERELVAAISSAGTTYYADSVKGRFTISRDNAKNTVYLQMNSLNPEETAVYYCAAKYSYYTYAGDGGLFSWSYGYWGQGTQVTVSS”, “low polyreactivity”; in that of “QVQLVESGGGLVQAGGSLRLSCAASGSTFRYYAMGWYRQAPGKERELVAAITYRATSTYYADSVEGRFTISRDNAKNTVYLQMNSLKPEYTAVYYCAAYSTYSRSDYWGQGTQVTVSS”, “high polyreactivity”.
On to “QVQLVESGGGLVQAGGSLRLSCAASGSTFRYYAMGWYRQAPGKERELVAANTYRATSTYYADSVKGRFTISRDNAKNTVYLQMNSLKPEDTAVYYCAAYSTYSRYDYWGQGTQVTVSS”, for which the “polyreactivity (PSR sort gate)” value is given as “high polyreactivity”.
The same measure for “QVQLVESGGGLVQAGGSLRLSCAASGSTFRYYAMGWYRQAPGKERELVAGISSSGGRTYYADSVKGRFTISRDNAKNTVYLQMNSLKPEDTAVYYCAAVRSSWSYYYWGQGTQVTVSS”: “high polyreactivity”.
In the case of “QVQLVESGGGLVQAGGSLRLSCAASGSTFRYYAMGWYRQEPGKERELVASITRGASTNYADSVKGRFTISRDNAKNTVYIQMNSLKPEDTAVYYCAADNYWHTFGGTDLRDDYWGQGTQVTVSS” it was “low polyreactivity”; in that of “QVQLVESGGGLVQAGGSLRLSCAASGSTFRYYAMGWYSQAPGKERELVASISSGGSTNYADSVKGRFTISRDNAKNTVYLQMNSLKPEDTAVYYCNADSWTVNRRYYYYRYEYWGQGTQVTVSS”, “low polyreactivity”.
In the case of “QVQLVESGGGLVQAGGSLRLSCAASGSTFRYYDMGWYRQAPGKERELVADISSGGSTYYADSVKGRFTISRDNAKNTVYLQMNSLKPEDTAVYYCAAAYLSWLFRYDYWGQGTQVTVSS” it was “high polyreactivity”.
Consider “QVQLVESGGGLVQAGGSLRLSCAASGSTFRYYTMGWYRQAPGKERELVASISRSGSTSYADSVKGRFTISRDNAKNTVYLQMNSLKPEDSAVYYCAGESYFGAYAGYDYWGQGTQVTVSS”, for which the “polyreactivity (PSR sort gate)” value is “low polyreactivity”.
In the case of “QVQLVESGGGLVQAGGSLRLSCAASGSTFRYYVMGWYRQAPRKERELVAGISYRGGTTYYADSVKGRFSISRDNAKNTVYLQMNSLKPEDTAVYYCAADSTPYVLSGNYDYWGQGPQVTVSS” it was “low polyreactivity”; in that of “QVQLVESGGGLVQAGGSLRLSCAASGSTFSANAMGWYRQAPGKERELVAAITYRGGNTYYADSVKGRFTISRDNAKNTVYLQMNSLKPEDTAVYYCNRDLRVRYRRMKYGYWGQGTQVTVSS”, “low polyreactivity”.
For the sequence “QVQLVESGGGLVQAGGSLRLSCAASGSTFSANAMGWYRQAPGKERELVASISRGGGSTYYADSVKGRFTISRDTAKNTVYLQMNSLKPDDTAVYYCAAVYYRRISQGDTQTYYQYNYWGQVTQVTVSS”, the “polyreactivity (PSR sort gate)” value is on record as “high polyreactivity”.
In the case of “QVQLVESGGGLVQAGGSLRLSCAASGSTFSANAMGWYRQAPGKERELVASISRRGGSTYYADSVKGRFTISRDYAKNTVYLQMNSLKPEDTAVYYCNKRIARQGSPSEYGRSQIGYYYWGQGTQVTVSS” it was “high polyreactivity”; in that of “QVQLVESGGGLVQAGGSLRLSCAASGSTFSANGMGWYRQAPGKERELVAAISARGGITYYADSVKGRFTISRDNAKNTVYLQMNSVKPEDTAVYYCNQRKYYRSTKYNYWGQGTQVTVSS”, “high polyreactivity”; in that of “QVQLVESGGGLVQAGGSLRLSCAASGSTFSAYAMGWYRQAPGKERELVASNSYSGSSTYYADSVKGRFTISRDNAKNTVYLQMNSLKPEESAVYYCAAVYVRKGTRYGYWGQGTQVTVSS”, “high polyreactivity”.
“QVQLVESGGGLVQAGGSLRLSCAASGSTFSAYVMGWYRQAPVKERELVAAISSIGGSTYYADSVKGRFTISRDNAKNTVYLQMNSLKPEDTAVYYCAAEPPGSTYEGGYWGQGTQVTVSS”: the “polyreactivity (PSR sort gate)” value is given as “low polyreactivity”.
In the case of “QVQLVESGGGLVQAGGSLRLSCAASGSTFSDYAMGWYRPEPGKERELDATITSTGDTNYADSVKGRFTMSRDNAKTTVYLQMNSLKPEDTAVYYCAAQHKKYGKRGRWNNFGYWGQGTQVTVSS” it was “low polyreactivity”.
“QVQLVESGGGLVQAGGSLRLSCAASGSTFSDYAMGWYRQAPGKERELVAAISGGGTTDYADSVKGRFTISRDNAKNTVYLQMNSLKPEDTAVYYCNKPVEGSFLPYSYLRFDYWGQGTHVTVSS”: the “polyreactivity (PSR sort gate)” value was “low polyreactivity”.
The same measure for “QVQLVESGGGLVQAGGSLRLSCAASGSTFSDYAMGWYRQAPGKERELVAGITETGTTTYYADSVKGRFTISRDNAKNTVYLQMNSLKPEDTAVYYCAAYVVTYYYGTGYYSYDYWGQGTQVTVSS”: “low polyreactivity”; for “QVQLVESGGGLVQAGGSLRLSCAASGSTFSENAMGWYRQAPGKERELVAAISWGGGSTYYADSVKGRFTISRDNAKNTVYLQMNSLKPEDTAVYYCIADVFDDYGYFESDYWGQGTQVTVSS”: “low polyreactivity”.
As to “QVQLVESGGGLVQAGGSLRLSCAASGSTFSFNAMGWYRQAPGKERELVAAISRSGGRTYYADSVKGRFTISRDNAKNTVYLQMNSLKPEDTAVYYCNKVWFQRSVQPVEYVYWGQGTQVTVSS”, the “polyreactivity (PSR sort gate)” value was “high polyreactivity”.
As to “QVQLVESGGGLVQAGGSLRLSCAASGSTFSFNAMGWYRQAPGKERELVAAITYSGGDTYYADSVKGRFTISRDNAKNTVYLQMNSLKPEDTAVYYCAAKIPRPYAMDYWGQGTQVTVSS”, the “polyreactivity (PSR sort gate)” value is on record as “low polyreactivity”.

Source of the values: the nanobody polyreactivity screen of Harvey et al. (2022).
